Data set [1] concerns the molecule itself. Kind of data set: SEC-MALLS; Superose 6 10/300 GL; 20 mM Hepes pH 8.0, 150 mM NaCl, 0.002% (w/v) LMNG, 0.004 mg/ml TOCL; protein-conjugate (three-detector) method.
Data set [2] concerns the molecule itself. The experiment in a line: SEC-MALLS; Superdex 200 10/300 GL; 20 mM Hepes pH 7.5, 150 mM NaCl, 5 mM CaCl2; two-detector method.
For data set [3], the target named is T1, N-terminal domain of citrin (human, UniProt Q9UJS0 2-319).
T1 construct: human citrin N-terminal domain, residues 2-319; In the crystal structure it is joined to the C-terminal domain on one chain; The N-terminal domain of citrin could not be expressed on its own; also called EF-hands 1-8; source: Lactococcus lactis NZ9000, as part of the purified fusion; set free by cleavage with MBP-TEV
T1 sequence (looked up): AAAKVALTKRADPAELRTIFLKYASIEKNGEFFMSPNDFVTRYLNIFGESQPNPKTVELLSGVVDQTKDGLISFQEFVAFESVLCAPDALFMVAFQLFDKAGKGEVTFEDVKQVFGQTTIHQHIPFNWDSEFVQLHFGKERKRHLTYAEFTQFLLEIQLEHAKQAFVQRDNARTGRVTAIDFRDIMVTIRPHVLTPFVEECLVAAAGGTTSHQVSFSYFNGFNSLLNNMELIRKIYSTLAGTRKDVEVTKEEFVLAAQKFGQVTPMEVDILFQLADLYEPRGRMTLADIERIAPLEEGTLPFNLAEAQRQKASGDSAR
Kind of data set: SEC; fusion cleaved with MBP-TEV overnight, then Superose 12 10/30 HR; 20 mM Hepes pH 7.5, 150 mM NaCl, 10 mM EGTA (sample E, supplemented with 10 mM EGTA and 10 mM EDTA); peak fractions on Tris-tricine gels. The settings on record: both partners purified. A general note: In gel filtration, larger molecules generally elute earlier.

B1: citrin (mitochondrial aspartate/glutamate carrier isoform 2), full-length (natural protein, human, UniProt Q9UJS0 1-675, looked up)
chain: MAAAKVALTKRADPAELRTIFLKYASIEKNGEFFMSPNDFVTRYLNIFGESQPNPKTVELLSGVVDQTKDGLISFQEFVAFESVLCAPDALFMVAFQLFDKAGKGEVTFEDVKQVFGQTTIHQHIPFNWDSEFVQLHFGKERKRHLTYAEFTQFLLEIQLEHAKQAFVQRDNARTGRVTAIDFRDIMVTIRPHVLTPFVEECLVAAAGGTTSHQVSFSYFNGFNSLLNNMELIRKIYSTLAGTRKDVEVTKEEFVLAAQKFGQVTPMEVDILFQLADLYEPRGRMTLADIERIAPLEEGTLPFNLAEAQRQKASGDSARPVLLQVAESAYRFGLGSVAGAVGATAVYPIDLVKTRMQNQRSTGSFVGELMYKNSFDCFKKVLRYEGFFGLYRGLLPQLLGVAPEKAIKLTVNDFVRDKFMHKDGSVPLAAEILAGGCAGGSQVIFTNPLEIVKIRLQVAGEITTGPRVSALSVVRDLGFFGIYKGAKACFLRDIPFSAIYFPCYAHVKASFANEDGQVSPGSLLLAGAIAGMPAASLVTPADVIKTRLQVAARAGQTTYSGVIDCFRKILREEGPKALWKGAGARVFRSSPQFGVTLLTYELLQRWFYIDFGGVKPMGSEPVPKSRINLPAPNPDHVGGYKLAVATFAGIENKFGLYLPLFKPSVSTSKAIGGGP
notes: also called SLC25A13; AGC2; source: purified in lauryl maltose neopentyl glycol
The stoichiometry N is a count of units in the complex or per binding partner. As to B1, in data set [1], the “stoichiometry N” value amounted to 2.

B2: N-terminal domain of aralar (domain or fragment, human, UniProt O75746 2-311, looked up)
chain: AVKVQTTKRGDPHELRNIFLQYASTEVDGERYMTPEDFVQRYLGLYNDPNSNPKIVQLLAGVADQTKDGLISYQEFLAFESVLCAPDSMFIVAFQLFDKSGNGEVTFENVKEIFGQTIIHHHIPFNWDCEFIRLHFGHNRKKHLNYTEFTQFLQELQLEHARQAFALKDKSKSGMISGLDFSDIMVTIRSHMLTPFVEENLVSAAGGSISHQVSFSYFNAFNSLLNNMELVRKIYSTLAGTRKDVEVTKEEFAQSAIRYGQVTPLEIDILYQLADLYNASGRLTLADIERIAPLAEGALPYNLAELQRQQ
notes: human aralar N-terminal domain, residues 2-311; Tag removed with Factor Xa; also called aralar N-terminal domain; regulatory domain of aralar; source: Lactococcus lactis NZ9000, purified (Nickel Sepharose, Factor Xa, SEC); not shown: His8, N-terminal, cleaved
Turning to B2, in data set [2], the “stoichiometry N” value came out at 2.

B3: N- and C-terminal domain fusion of aralar (domain or fragment, human)
chain: AVKVQTTKRGDPHELRNIFLQYASTEVDGERYMTPEDFVQRYLGLYNDPNSNPKIVQLLAGVADQTKDGLISYQEFLAFESVLCAPDSMFIVAFQLFDKSGNGEVTFENVKEIFGQTIIHHHIPFNWDCEFIRLHFGHNRKKHLNYTEFTQFLQELQLEHARQAFALKDKSKSGMISGLDFSDIMVTIRSHMLTPFVEENLVSAAGGSISHQVSFSYFNAFNSLLNNMELVRKIYSTLAGTRKDVEVTKEEFAQSAIRYGQVTPLEIDILYQLADLYNASGRLTLADIERIAPLAEGALPYNLAELQRQQSPGLGRENLYFQGGLKPAGSEPTPKSRIADLPPANPDHIGGYRLATATFAGIENKFGLYLPKFKSPSVAVVQPKAAVAATQ
notes: human aralar N-terminal domain, residues 2-317; TEV protease cleavage site that links the two domains in place of the carrier domain; human aralar C-terminal domain, residues 611-678; also called aralar fusion; source: gene codon-optimized for expression in L. lactis; expressed, purified
As to B3, the “stoichiometry N” value in data set [2] worked out at 2.

B4: C-terminal domain of citrin (domain or fragment, human, UniProt Q9UJS0 613-675, looked up)
chain: GVKPMGSEPVPKSRINLPAPNPDHVGGYKLAVATFAGIENKFGLYLPLFKPSVSTSKAIGGGP
notes: human citrin C-terminal domain, residues 613-675; residues 632-658 are seen in the structure; In the crystal structure it is joined to the N-terminal domain on one chain; also called C-terminal helix; source: Lactococcus lactis NZ9000, as part of the purified fusion; set free by cleavage with MBP-TEV
B4: in data set [3], the binding result is reported as “binds”.

B5: N- and C-terminal domain fusion of citrin (domain or fragment, human)
chain: AAAKVALTKRADPAELRTIFLKYASIEKNGEFFMSPNDFVTRYLNIFGESQPNPKTVELLSGVVDQTKDGLISFQEFVAFESVLCAPDALFMVAFQLFDKAGKGEVTFEDVKQVFGQTTIHQHIPFNWDSEFVQLHFGKERKRHLTYAEFTQFLLEIQLEHAKQAFVQRDNARTGRVTAIDFRDIMVTIRPHVLTPFVEECLVAAAGGTTSHQVSFSYFNGFNSLLNNMELIRKIYSTLAGTRKDVEVTKEEFVLAAQKFGQVTPMEVDILFQLADLYEPRGRMTLADIERIAPLEEGTLPFNLAEAQRQKASGDSARENLYFQGGVKPMGSEPVPKSRINLPAPNPDHVGGYKLAVATFAGIENKFGLYLPLFKPSVSTSKAIGGGP
notes: human citrin N-terminal domain, residues 2-319; TEV protease cleavage site that links the two domains in place of the carrier domain; human citrin C-terminal domain, residues 613-675; A Factor-Xa cleavage site follows the octa-histidine tag; no tag removal step is described in the purification of this fusion; also called citrin N- and C-terminal fusion protein; regulatory domain of citrin; …
For B5, the “stoichiometry N” value in data set [2] is 2.

The values are drawn from article PMC4250520, “Calcium-induced conformational changes of the regulatory domain of human mitochondrial aspartate/glutamate carriers” (Nature Communications, 2014).
